The source of these data is patent US20210388110A1 (published 2021).

The Kd is the constant that tells how readily two partners part at equilibrium.

For this assay, the target named is T1, soluble human CD3ε chain (human, UniProt P07766 23-126, limits assumed).
T1 construct: the text says soluble human CD3ε chain; also called human CD3 epsilon chain
The assay is described as follows: SPR (Biacore).

T1 sequence (P07766 23-126 limits assumed): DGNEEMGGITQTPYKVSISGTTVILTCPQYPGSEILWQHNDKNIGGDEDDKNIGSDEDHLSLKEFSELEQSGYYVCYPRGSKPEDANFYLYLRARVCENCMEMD

B1: TR01H082-E22Hh/none-Hi-Kn010G3/TR01L018-k0 (antibody, human IgG1, kappa, L234A L235A, N297A)
heavy: QVQLVESGGGLVQPGRSLRLSCAASGFTFSNAWMHWVRQAPGKGLEWVAQIKDKSQNYATYYAESVKGRFTISRDDSKNSLYLQMNSLKTEDTAVYYCRYVHYAAGYGVDAWGQGTTVTVSSASTKGPSVFPLAPSSKSTSGGTAALGCLVKDYFPEPVTVSWNSGALTSGVHTFPAVLQSSGLYSLSSVVTVPSSSLGTQTYICNVNHKPSNTKVDKKVEPKSCDKTHTCPPCPAPEAAGGPSVFLFPPKPKDTLMISRTPEVTCVVVDVSHEDPEVKFNWYVDGVEVHNAKTKPREEQYASTYRVVSVLTVLHQDWLNGKEYKCKVSNKALPAPIEKTISKAKGQPREPQVYTLPPSRCELTKNQVSLSCAVKGFYPSDIAVEWESNGQPENNYKTTPPVLDSDGSFFLVSKLTVDKSRWQQGNVFSCSVMHEALHNHYTQKSLSLSPDYKDDDDK
chain: EPKSSDKTHTCPPCPAPELLGGPSVFLFPPKPKDTLMISRTPEVTCVVVDVSHEDPEVKFNWYVDGVEVHNAKTKPREEQYNSTYRVVSVLTVLHQDWLNGKEYKCKVSNKALPAPIEKTISKAKGQPREPQVCTLPPSRDELTKNQVSLWCLVKGFYPSDIAVEWESNGQPENNYKTTPPVLDSDGSFFLYSKLTVDKSRWQQGNVFSCSVMHEALHNRYTQKSLSLSP
light: DIVMTQSPLSLPVTPGEPASISCQASESPVHSNRNTYLHWYLQKPGQSPQLLIYKVSNRFSGVPDRFSGSGSGTDFTLKISRVEAEDVGVYYCGQGTQVPYTFGQGTKLEIKRTVAAPSVFIFPPSDEQLKSGTASVVCLLNNFYPREAKVQWKVDNALQSGNSQESVTEQDSKDSTYSLSSTLTLSKADYEKHKVYACEVTHQGLSSPVTKSFNRGEC
notes: single-arm
In turn, B1 came in with a Kd of 47.2 nM. In other words, the double-digit nanomolar range.

B2: TR01H083-E22Hh/none-Hi-Kn010G3/L0000-k0 (antibody, human IgG1, kappa, L234A L235A, N297A)
heavy: QVQLVESGGGLVQPGRSLRLSCAASGFTFSNAWMHWVRQAPGKGLEWVAQIKDKSNNYATYYAESVKGRFTISRADSKNSIYLQMNSLKTEDTAVYYCRYVHYAAGYGVDIWGQGTTVTVSSASTKGPSVFPLAPSSKSTSGGTAALGCLVKDYFPEPVTVSWNSGALTSGVHTFPAVLQSSGLYSLSSVVTVPSSSLGTQTYICNVNHKPSNTKVDKKVEPKSCDKTHTCPPCPAPEAAGGPSVFLFPPKPKDTLMISRTPEVTCVVVDVSHEDPEVKFNWYVDGVEVHNAKTKPREEQYASTYRVVSVLTVLHQDWLNGKEYKCKVSNKALPAPIEKTISKAKGQPREPQVYTLPPSRCELTKNQVSLSCAVKGFYPSDIAVEWESNGQPENNYKTTPPVLDSDGSFFLVSKLTVDKSRWQQGNVFSCSVMHEALHNHYTQKSLSLSPDYKDDDDK
chain: EPKSSDKTHTCPPCPAPELLGGPSVFLFPPKPKDTLMISRTPEVTCVVVDVSHEDPEVKFNWYVDGVEVHNAKTKPREEQYNSTYRVVSVLTVLHQDWLNGKEYKCKVSNKALPAPIEKTISKAKGQPREPQVCTLPPSRDELTKNQVSLWCLVKGFYPSDIAVEWESNGQPENNYKTTPPVLDSDGSFFLYSKLTVDKSRWQQGNVFSCSVMHEALHNRYTQKSLSLSP
light: DIVMTQSPLSLPVTPGEPASISCRSSQSLVHSNRNTYLHWYQQKPGQAPRLLIYKVSNRFSGVPDRFSGSGSGTDFTLKISRVEAEDVGVYYCGQGTQVPYTFGQGTKLEIKRTVAAPSVFIFPPSDEQLKSGTASVVCLLNNFYPREAKVQWKVDNALQSGNSQESVTEQDSKDSTYSLSSTLTLSKADYEKHKVYACEVTHQGLSSPVTKSFNRGEC
notes: single-arm
B2 showed an equilibrium dissociation constant (Kd) of 6.83 nM.

B3: TR01H082-E22Hh/none-Hi-Kn010G3/TR01L023-k0 (antibody, human IgG1, kappa, L234A L235A, N297A)
heavy: QVQLVESGGGLVQPGRSLRLSCAASGFTFSNAWMHWVRQAPGKGLEWVAQIKDKSQNYATYYAESVKGRFTISRDDSKNSLYLQMNSLKTEDTAVYYCRYVHYAAGYGVDAWGQGTTVTVSSASTKGPSVFPLAPSSKSTSGGTAALGCLVKDYFPEPVTVSWNSGALTSGVHTFPAVLQSSGLYSLSSVVTVPSSSLGTQTYICNVNHKPSNTKVDKKVEPKSCDKTHTCPPCPAPEAAGGPSVFLFPPKPKDTLMISRTPEVTCVVVDVSHEDPEVKFNWYVDGVEVHNAKTKPREEQYASTYRVVSVLTVLHQDWLNGKEYKCKVSNKALPAPIEKTISKAKGQPREPQVYTLPPSRCELTKNQVSLSCAVKGFYPSDIAVEWESNGQPENNYKTTPPVLDSDGSFFLVSKLTVDKSRWQQGNVFSCSVMHEALHNHYTQKSLSLSPDYKDDDDK
chain: EPKSSDKTHTCPPCPAPELLGGPSVFLFPPKPKDTLMISRTPEVTCVVVDVSHEDPEVKFNWYVDGVEVHNAKTKPREEQYNSTYRVVSVLTVLHQDWLNGKEYKCKVSNKALPAPIEKTISKAKGQPREPQVCTLPPSRDELTKNQVSLWCLVKGFYPSDIAVEWESNGQPENNYKTTPPVLDSDGSFFLYSKLTVDKSRWQQGNVFSCSVMHEALHNRYTQKSLSLSP
light: DIVMTQSPLSLPVTPGEPASISCRSSQSPVHSNRNTYLHWYLQKPGQSPQLLIYKVSNRFSGVPDRFSGSGSGTDFTLKISRVEAEDVGVYYCTQGTQVPYTFGQGTKLEIKRTVAAPSVFIFPPSDEQLKSGTASVVCLLNNFYPREAKVQWKVDNALQSGNSQESVTEQDSKDSTYSLSSTLTLSKADYEKHKVYACEVTHQGLSSPVTKSFNRGEC
notes: single-arm
In the case of B3, the Kd stood at 42.5 nM.

B4: TR01H082-E22Hh/none-Hi-Kn010G3/TR01L024-k0 (antibody, human IgG1, kappa, L234A L235A, N297A)
heavy: QVQLVESGGGLVQPGRSLRLSCAASGFTFSNAWMHWVRQAPGKGLEWVAQIKDKSQNYATYYAESVKGRFTISRDDSKNSLYLQMNSLKTEDTAVYYCRYVHYAAGYGVDAWGQGTTVTVSSASTKGPSVFPLAPSSKSTSGGTAALGCLVKDYFPEPVTVSWNSGALTSGVHTFPAVLQSSGLYSLSSVVTVPSSSLGTQTYICNVNHKPSNTKVDKKVEPKSCDKTHTCPPCPAPEAAGGPSVFLFPPKPKDTLMISRTPEVTCVVVDVSHEDPEVKFNWYVDGVEVHNAKTKPREEQYASTYRVVSVLTVLHQDWLNGKEYKCKVSNKALPAPIEKTISKAKGQPREPQVYTLPPSRCELTKNQVSLSCAVKGFYPSDIAVEWESNGQPENNYKTTPPVLDSDGSFFLVSKLTVDKSRWQQGNVFSCSVMHEALHNHYTQKSLSLSPDYKDDDDK
chain: EPKSSDKTHTCPPCPAPELLGGPSVFLFPPKPKDTLMISRTPEVTCVVVDVSHEDPEVKFNWYVDGVEVHNAKTKPREEQYNSTYRVVSVLTVLHQDWLNGKEYKCKVSNKALPAPIEKTISKAKGQPREPQVCTLPPSRDELTKNQVSLWCLVKGFYPSDIAVEWESNGQPENNYKTTPPVLDSDGSFFLYSKLTVDKSRWQQGNVFSCSVMHEALHNRYTQKSLSLSP
light: DIVMTQSPLSLPVTPGEPASISCQASESPVHSNRNTYLHWYLQKPGQSPQLLIYKVSNRFSGVPDRFSGSGSGTDFTLKISRVEAEDVGVYYCTQGTQVPYTFGQGTKLEIKRTVAAPSVFIFPPSDEQLKSGTASVVCLLNNFYPREAKVQWKVDNALQSGNSQESVTEQDSKDSTYSLSSTLTLSKADYEKHKVYACEVTHQGLSSPVTKSFNRGEC
notes: single-arm
As to B4, the Kd worked out at 47.6 nM.

B5: TR01H083-E22Hh/none-Hi-Kn010G3/L0201-k0 (antibody, human IgG1, kappa, L234A L235A, N297A)
heavy: QVQLVESGGGLVQPGRSLRLSCAASGFTFSNAWMHWVRQAPGKGLEWVAQIKDKSNNYATYYAESVKGRFTISRADSKNSIYLQMNSLKTEDTAVYYCRYVHYAAGYGVDIWGQGTTVTVSSASTKGPSVFPLAPSSKSTSGGTAALGCLVKDYFPEPVTVSWNSGALTSGVHTFPAVLQSSGLYSLSSVVTVPSSSLGTQTYICNVNHKPSNTKVDKKVEPKSCDKTHTCPPCPAPEAAGGPSVFLFPPKPKDTLMISRTPEVTCVVVDVSHEDPEVKFNWYVDGVEVHNAKTKPREEQYASTYRVVSVLTVLHQDWLNGKEYKCKVSNKALPAPIEKTISKAKGQPREPQVYTLPPSRCELTKNQVSLSCAVKGFYPSDIAVEWESNGQPENNYKTTPPVLDSDGSFFLVSKLTVDKSRWQQGNVFSCSVMHEALHNHYTQKSLSLSPDYKDDDDK
chain: EPKSSDKTHTCPPCPAPELLGGPSVFLFPPKPKDTLMISRTPEVTCVVVDVSHEDPEVKFNWYVDGVEVHNAKTKPREEQYNSTYRVVSVLTVLHQDWLNGKEYKCKVSNKALPAPIEKTISKAKGQPREPQVCTLPPSRDELTKNQVSLWCLVKGFYPSDIAVEWESNGQPENNYKTTPPVLDSDGSFFLYSKLTVDKSRWQQGNVFSCSVMHEALHNRYTQKSLSLSP
light: DIVMTQSPLSLPVTPGEPASISCRSSQPPVHSNRNTYLHWYQQKPGQAPRLLIYKVSNRFSGVPDRFSGSGSGTDFTLKISRVEAEDVGVYYCGQGTQVPYTFGQGTKLEIKRTVAAPSVFIFPPSDEQLKSGTASVVCLLNNFYPREAKVQWKVDNALQSGNSQESVTEQDSKDSTYSLSSTLTLSKADYEKHKVYACEVTHQGLSSPVTKSFNRGEC
notes: single-arm
B5 yielded a Kd of 4.42 nM.

B6: TR01H083-E22Hh/none-Hi-Kn010G3/L0011-k0 (antibody, human IgG1, kappa, L234A L235A, N297A)
heavy: QVQLVESGGGLVQPGRSLRLSCAASGFTFSNAWMHWVRQAPGKGLEWVAQIKDKSNNYATYYAESVKGRFTISRADSKNSIYLQMNSLKTEDTAVYYCRYVHYAAGYGVDIWGQGTTVTVSSASTKGPSVFPLAPSSKSTSGGTAALGCLVKDYFPEPVTVSWNSGALTSGVHTFPAVLQSSGLYSLSSVVTVPSSSLGTQTYICNVNHKPSNTKVDKKVEPKSCDKTHTCPPCPAPEAAGGPSVFLFPPKPKDTLMISRTPEVTCVVVDVSHEDPEVKFNWYVDGVEVHNAKTKPREEQYASTYRVVSVLTVLHQDWLNGKEYKCKVSNKALPAPIEKTISKAKGQPREPQVYTLPPSRCELTKNQVSLSCAVKGFYPSDIAVEWESNGQPENNYKTTPPVLDSDGSFFLVSKLTVDKSRWQQGNVFSCSVMHEALHNHYTQKSLSLSPDYKDDDDK
chain: EPKSSDKTHTCPPCPAPELLGGPSVFLFPPKPKDTLMISRTPEVTCVVVDVSHEDPEVKFNWYVDGVEVHNAKTKPREEQYNSTYRVVSVLTVLHQDWLNGKEYKCKVSNKALPAPIEKTISKAKGQPREPQVCTLPPSRDELTKNQVSLWCLVKGFYPSDIAVEWESNGQPENNYKTTPPVLDSDGSFFLYSKLTVDKSRWQQGNVFSCSVMHEALHNRYTQKSLSLSP
light: DIVMTQSPLSLPVTPGEPASISCRSSQPLVHSNRNTYLHWYQQKPGQAPRLLIYKVSNRFSGVPDRFSGSGSGTDFTLKISRVEAEDVGVYYCGQGTQVPYTFGQGTKLEIKRTVAAPSVFIFPPSDEQLKSGTASVVCLLNNFYPREAKVQWKVDNALQSGNSQESVTEQDSKDSTYSLSSTLTLSKADYEKHKVYACEVTHQGLSSPVTKSFNRGEC
notes: single-arm
On to B6, for which the affinity, expressed as Kd, was 6.7 nM.
